Values belong to the binder of their own block, whether it stands above or below them.
What was measured:
[1] = molecular target: T1, human GPC3 on HepG2 cells (human, UniProt P51654 25-554); experiment: flow cytometry on HepG2 cells (human GPC3), anti-NGAL detection, GeoMean BL1-H [Cont'd) C]
T1 construct: whole, on cells; Endogenous GPC3 of the tumor cell line; also called GPC3-positive tumor cell line HepG2; human GPC3-expressing HepG2 cells
Description: GPC3-positive tumor cell line HepG2 was cultured in Dulbecco's Modified Eagle's Medium ([…], Pan Biotech) supplemented with 10% Fetal Calf Serum (Sigma-Aldrich) and in cell culture flasks according to manufacturer's instruction (37° C., 5% CO₂ atmosphere).
(§1) 5×10⁴ cells per well were incubated for 1 h in ice-cold PBS containing 5% fetal calf serum (PBS-FCS). A dilution series of the tested multimeric proteins (SEQ ID NOs: 38-44 and 46-55), the 4-1BB-targeting lipocalin mutein as included in the multimeric proteins (SEQ ID NO: 64) or the GPC3-targeting lipocalin SEQ ID NO: 90 were added to the cells and incubated for 1 h on ice. Cells were washed twice with PBS and then incubated with a rabbit anti-NGAL or a goat anti-human IgG labeled with fluorescent dye Alexa 488 for 30 min on ice. Human IgG4 isotype (SEQ ID NOs: 29 and 30) and lipocalin mutein SEQ ID NO: 8 were tested as a negative control. Cells were subsequently washed and analyzed using iQue Flow cytometer (Intellicyte Screener). Mean geometric fluorescent signals were plotted and fitted with Graphpad software using nonlinear regression (shared bottom, four parameters, variable slope).

human 4-1BB on cells [2] = molecular target: T2, human 4-1BB on cells (human, UniProt Q07011 24-255); experiment: flow cytometry on Flp-In-CHO::huCD137 (human 4-1BB) cells, anti-NGAL detection, GeoMean BL1-H
T2 construct: whole, on cells; Stably transfected CHO cells (flow cytometry) and bought Jurkat reporter cells (bioassay); also called Flp-In-CHO::hu4-1BB; human 4-1BB-expressing CHO cells
T2 sequence (Q07011 24-255): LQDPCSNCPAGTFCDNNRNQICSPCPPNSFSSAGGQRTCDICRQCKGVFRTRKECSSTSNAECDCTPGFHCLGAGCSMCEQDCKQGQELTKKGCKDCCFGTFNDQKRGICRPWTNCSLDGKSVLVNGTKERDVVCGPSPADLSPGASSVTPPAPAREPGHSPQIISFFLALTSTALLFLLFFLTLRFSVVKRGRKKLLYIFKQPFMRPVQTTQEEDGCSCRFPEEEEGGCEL
Description: (§2) CHO cells were stably transfected with human 4-1BB, cynomolgus 4-1BB, or a mock control using the Flp-In system (Life Technologies) according to the manufacturer's instructions. Transfected CHO cells were maintained in Ham's F12 medium (Life Technologies) supplemented with 10% Fetal Calf Serum (Biochrom) and 500 μg/ml Hygromycin B (Roth). Cells were cultured in cell culture flasks according to manufacturer's instruction (37° C., 5% CO₂ atmosphere).
as §1

human PD-L1 on CHO cells [3] = molecular target: T3, human PD-L1 on CHO cells (human, UniProt Q9NZQ7 19-290); experiment: flow cytometry on CHO cells stably transfected with human PD-L1, anti-NGAL detection, GeoMean BL1-H
T3 construct: whole, on cells; Stably transfected CHO cells; also called Flp-In-CHO::huPD-L1; human PD-L1-expressing CHO cells
T3 sequence (Q9NZQ7 19-290): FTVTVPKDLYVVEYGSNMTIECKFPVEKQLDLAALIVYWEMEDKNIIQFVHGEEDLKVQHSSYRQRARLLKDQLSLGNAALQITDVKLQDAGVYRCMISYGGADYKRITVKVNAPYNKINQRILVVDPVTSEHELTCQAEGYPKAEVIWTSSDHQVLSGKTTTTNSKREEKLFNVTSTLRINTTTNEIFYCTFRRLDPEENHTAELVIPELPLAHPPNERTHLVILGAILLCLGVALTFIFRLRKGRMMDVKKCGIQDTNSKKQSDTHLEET
Description: as §1
(§3) Target-specific binding of hexavalent trimeric proteins to human 4-1BB-, OX40- or PD-L1-expressing cells was assessed by flow cytometry as described in Example 5, using CHO cells stably transfected with human 4-1BB, human OX40 or human PD-L1 (Flp-In system; Life Technologies).

[4] = molecular target: T4, recombinant hu4-1BB-His (human 4-1BB with a C-terminal polyhistidine tag, R&D Systems) (human, UniProt Q07011 24-186); experiment: ELISA, hu4-1BB-His coated on the plate, bound agent detected with anti-NGAL-HRP
T4 construct: Bought; not shown: C-terminal polyhistidine tag
Description: C-terminal His-tagged 4-1BB or GPC3 was coated on a microtiter plate, and the tested agents were titrated starting with the highest concentration of 100 nM. Bound agents under study were detected via anti-NGAL-HRP. The data was fit with a 1:1 binding model with the EC₅₀ value and the maximum signal as free parameters, and a slope that was fixed to one.
Recombinant hu4-1BB-His (human 4-1BB with a C-terminal polyhistidine tag, R&D Systems) at the concentration of 1 μg/mL in PBS was coated overnight on microtiter plates at 4° C. After washing with PBS-0.05% T (PBS supplemented with 0.05% (v/v) Tween 20), the plates were blocked with 2% BSA (w/v) in PBS-0.1% T (PBS supplemented with 0.1% (v/v) Tween 20) for 1 h at room temperature. After washing with 100 μL PBS-0.05% T five times, exemplary multimeric proteins (SEQ ID NOs: 38-44 and 46-53) or 4-1BB-specific lipocalin mutein as included in the multimeric protein (SEQ ID NO: 64) at different concentrations, ranging from 100 to 0.002 nM, were added to the wells and incubated for 1 h at room temperature, followed by another wash step. Bound molecules under study were detected by incubation with 1:1000 diluted anti-NGAL-HRP in PBS-0.1% T-2% BSA. After an additional wash step, fluorogenic HRP substrate (QuantaBlu, Thermo) was added to each well and the fluorescence intensity was detected using a fluorescence microplate reader.

[5] = molecular target: T5, cynomolgus 4-1BB on CHO cells (cynomolgus, UniProt A9YYE7 24-254); experiment: flow cytometry on Flp-In-CHO::cyCD137 (cynomolgus 4-1BB) cells, anti-NGAL detection, GeoMean BL1-H [Cont'd) B]
T5 construct: also called Flp-In-CHO::cyno4-1BB; cynomolgus 4-1BB-expressing CHO cells
T5 sequence (A9YYE7 entry or part of it limits assumed): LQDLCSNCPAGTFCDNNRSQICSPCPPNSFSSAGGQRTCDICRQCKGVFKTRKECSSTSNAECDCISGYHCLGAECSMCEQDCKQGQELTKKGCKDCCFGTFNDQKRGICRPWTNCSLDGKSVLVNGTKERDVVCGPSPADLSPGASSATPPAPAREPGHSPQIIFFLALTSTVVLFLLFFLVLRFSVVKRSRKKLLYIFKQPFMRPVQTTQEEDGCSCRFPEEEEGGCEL
Description: as §2, §1

hu4-1BB-Fc (R&D Systems) = molecular target: T6, hu4-1BB-Fc (R&D Systems) (human, UniProt Q07011 24-186); experiment: SPR, hu4-1BB-Fc captured
T6 construct: Bought; also called human 4-1BB; not shown: human IgG Fc of the bought fusion

human 4-1BB on cells [6] = molecular target: T2, human 4-1BB on cells; experiment: flow cytometry, Flp-In-CHO::hu4-1BB cells
Description: as §1, §3

human PD-L1 on CHO cells [7] = molecular target: T3, human PD-L1 on CHO cells; experiment: flow cytometry, Flp-In-CHO::huPD-L1 cells

T1 sequence (P51654 25-554 limits assumed): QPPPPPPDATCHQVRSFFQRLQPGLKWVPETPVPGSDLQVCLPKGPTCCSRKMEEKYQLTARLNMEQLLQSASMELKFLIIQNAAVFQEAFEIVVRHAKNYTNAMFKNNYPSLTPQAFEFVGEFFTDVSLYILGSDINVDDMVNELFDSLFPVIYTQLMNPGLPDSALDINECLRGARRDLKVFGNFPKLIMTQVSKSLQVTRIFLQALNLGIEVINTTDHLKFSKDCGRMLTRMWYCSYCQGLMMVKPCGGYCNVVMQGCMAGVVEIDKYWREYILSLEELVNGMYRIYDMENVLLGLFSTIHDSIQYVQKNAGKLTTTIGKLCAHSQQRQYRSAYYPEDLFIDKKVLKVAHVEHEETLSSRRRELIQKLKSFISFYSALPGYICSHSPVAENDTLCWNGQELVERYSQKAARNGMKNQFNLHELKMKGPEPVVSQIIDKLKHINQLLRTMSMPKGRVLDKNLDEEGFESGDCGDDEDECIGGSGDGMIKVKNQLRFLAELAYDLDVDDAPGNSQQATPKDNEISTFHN

binding result [1]: no binding (tested: about 200 nM)
binding result (human 4-1BB on cells [2]): no binding (tested: about 200 nM)
binding result (human PD-L1 on CHO cells [3]): no binding (tested: about 7 nM)
binding result [4]: no binding (tested: 100 nM)
binding result [5]: no binding (tested: about 200 nM)
B1: SEQ ID NO: 8 (designed binder)
lipocalin mutein: QDSTSDLIPAPPLSKVPLQQNFQDNQFHGKWYVVGLAGNAILREDKDPQKMYATIYELKEDKSYNVTSVLFRKKKCDYWIRTFVPGSQPGEFTLGNIKSYPGLTSYLVRVVSTNYNQHAMVFFKKVSQNREYFKITLYGRTKELTSELKENFIRFSKSLGLPENHIVFPVPIDQCIDG

binding result (hu4-1BB-Fc (R&D Systems)): binds
B2: multimeric protein SEQ ID NO: 45 (designed binder)
chain: GVRLWATRQAMLGQVHEVPEGWLIFVAEQEELYVRVQNGFRKVQLEARTPLGGGGSGGGGSGGGGSGGGGSGGGGSQDSTSDLIPAPPLSKVPLQQNFQDNQFHGKWYVVGQAGNIRLREDKDPIKMMATIYELKEDKSYDVTMVKFDDKKCMYDIWTFVPGSQPGEFTLGKIKSFPGHTSSLVRVVSTNYNQHAMVFFKFVFQNREEFYITLYGRTKELTSELKENFIRFSKSLGLPENHIVFPVPIDQCIDGGGSGGAPEQKLISEEDLGSHHHHHHHHHH

EC50 (human 4-1BB on cells [6]): 4.71 nM
EC50 (human PD-L1 on CHO cells [7]): 1.23 nM
B3: bispecific hexavalent trimeric protein SEQ ID NO: 167 (designed binder)
chain: QVQLQESGPGLVKPSETLSITCTVSGFSLSNYDISWIRQPPGKGLEWLGVIWTGGATNYNPALKSRLTISRDNSKNQVSLKMSSVTAADTAVYYCVRDSNYRYDEPFTYWGQGTLVTVSSGGGGSGGGGSGGGGSGGGGSEIVLTQSPDTLSVTPKEKVTLTCRASQSIGTNIHWFQQKPGQSPKLLIKYASESISGVPSRFSGSGSGTDFTLTINSVEAEDAATYYCQQSNSWPYTFGQGTKLEIKGGGGSGGGGSGGGGSGVRLWATRQAMLGQVHEVPEGWLIFVAEQEELYVRVQNGFRKVQLEARTPLGGGGSGGGGSGGGGSQDSTSDLIPAPPLSKVPLQQNFQDNQFHGKWYVVGQAGNIRLREDKDPIKMMATIYELKEDKSYDVTMVKFDDKKCMYDIWTFVPGSQPGEFTLGKIKSFPGHTSSLVRVVSTNYNQHAMVFFKFVFQNREEFYITLYGRTKELTSELKENFIRFSKSLGLPENHIVFPVPIDQCIDGGGSGGAPEQKLISEEDLGSHHHHHHHHHH

Source: patent publication US20230227568A1 (Pieris, published 2023)
